According to US20250339531A1, “DUX4 POLYPEPTIDES AND NUCLEIC ACIDS FOR TREATING INFLAMMATORY AND AUTOIMMUNE CONDITIONS” (Fred Hutchinson Cancer Center, priority 2021, published 2025):

Legend:
Assay in all cases: anti-FLAG co-IP LC-MS, exp 3, +Dox
[1] = molecular target: KN motif and ankyrin repeat domain-containing protein 2 (Homo sapiens) (UniProt Q63ZY3)
[2] = molecular target: Elongation factor 1-alpha 1 (Homo sapiens) (UniProt P68104)
[3] = molecular target: Elongation factor 1-gamma (Homo sapiens) (UniProt P26641)
Sequence of Elongation factor 1-gamma (Homo sapiens) (P26641 2-437 limits assumed): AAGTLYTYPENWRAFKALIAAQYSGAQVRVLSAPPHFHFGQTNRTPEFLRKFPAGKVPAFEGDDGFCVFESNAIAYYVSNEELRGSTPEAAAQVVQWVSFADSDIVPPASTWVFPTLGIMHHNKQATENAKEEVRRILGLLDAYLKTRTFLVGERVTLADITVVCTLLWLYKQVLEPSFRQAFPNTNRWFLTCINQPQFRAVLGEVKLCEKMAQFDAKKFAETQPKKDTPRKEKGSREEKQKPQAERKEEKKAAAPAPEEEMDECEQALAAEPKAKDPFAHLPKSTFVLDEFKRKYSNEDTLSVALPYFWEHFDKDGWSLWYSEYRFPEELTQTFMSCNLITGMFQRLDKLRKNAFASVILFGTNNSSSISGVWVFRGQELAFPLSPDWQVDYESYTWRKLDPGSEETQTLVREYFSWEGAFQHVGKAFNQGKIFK

[4] = molecular target: Tubulin alpha-1B chain (Homo sapiens) (UniProt P68363)
[5] = molecular target: Fibronectin (Homo sapiens) (UniProt P02751)
Plectin (Homo sapiens) = Plectin (Homo sapiens) (UniProt Q15149)
[6] = molecular target: 40S ribosomal protein S3a (Homo sapiens) (UniProt P61247)
[7] = molecular target: Serine/threonine-protein phosphatase 2A 65 kDa regulatory subunit A alpha isoform (Homo sapiens) (UniProt P30153)
Sequence of Serine/threonine-protein phosphatase 2A 65 kDa regulatory subunit A alpha isoform (Homo sapiens) (P30153 2-589 limits assumed): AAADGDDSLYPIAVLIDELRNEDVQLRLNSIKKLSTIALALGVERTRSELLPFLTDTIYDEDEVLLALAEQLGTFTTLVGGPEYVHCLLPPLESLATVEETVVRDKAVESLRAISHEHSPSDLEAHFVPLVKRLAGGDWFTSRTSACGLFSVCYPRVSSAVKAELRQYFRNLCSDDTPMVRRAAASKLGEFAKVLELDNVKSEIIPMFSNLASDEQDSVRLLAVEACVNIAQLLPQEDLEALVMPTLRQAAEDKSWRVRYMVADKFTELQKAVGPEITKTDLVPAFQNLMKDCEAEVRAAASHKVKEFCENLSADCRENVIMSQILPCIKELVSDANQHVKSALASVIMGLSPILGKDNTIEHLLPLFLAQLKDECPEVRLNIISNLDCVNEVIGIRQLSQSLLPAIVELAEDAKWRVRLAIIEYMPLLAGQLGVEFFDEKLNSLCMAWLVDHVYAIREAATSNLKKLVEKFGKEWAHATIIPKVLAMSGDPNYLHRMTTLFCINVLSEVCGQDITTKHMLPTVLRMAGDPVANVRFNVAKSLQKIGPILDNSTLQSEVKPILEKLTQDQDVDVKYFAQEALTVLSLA

[8] = molecular target: Neutral cholesterol ester hydrolase 1 (Homo sapiens) (UniProt Q6PIU2)
[9] = molecular target: Prolyl 4-hydroxylase subunit alpha-1 (Homo sapiens) (UniProt P13674)
[10] = molecular target: Prostate tumor-overexpressed gene 1 protein (Homo sapiens) (UniProt Q86YD1)
[11] = molecular target: 60S ribosomal protein L8 (Homo sapiens) (UniProt P62917)
Filamin-C (Homo sapiens) = Filamin-C (Homo sapiens) (UniProt Q14315)
[12] = molecular target: Tubulin beta chain (Homo sapiens) (UniProt P07437)
Sequence of Tubulin beta chain (Homo sapiens) (P07437 whole entry): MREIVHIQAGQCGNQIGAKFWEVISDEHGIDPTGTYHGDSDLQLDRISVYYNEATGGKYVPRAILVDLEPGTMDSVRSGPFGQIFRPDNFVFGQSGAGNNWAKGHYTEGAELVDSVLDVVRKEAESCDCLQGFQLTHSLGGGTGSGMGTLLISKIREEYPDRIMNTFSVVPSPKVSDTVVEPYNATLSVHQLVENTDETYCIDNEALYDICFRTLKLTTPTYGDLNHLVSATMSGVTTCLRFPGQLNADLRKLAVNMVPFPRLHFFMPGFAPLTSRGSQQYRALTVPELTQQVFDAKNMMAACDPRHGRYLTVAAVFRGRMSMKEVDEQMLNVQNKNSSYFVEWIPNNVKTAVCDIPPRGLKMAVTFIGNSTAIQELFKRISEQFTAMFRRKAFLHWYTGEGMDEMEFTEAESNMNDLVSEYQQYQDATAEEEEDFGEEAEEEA

[13] = molecular target: Tubulin beta-4B chain (Homo sapiens) (UniProt P68371)
Sequence of Tubulin beta-4B chain (Homo sapiens) (P68371 whole entry): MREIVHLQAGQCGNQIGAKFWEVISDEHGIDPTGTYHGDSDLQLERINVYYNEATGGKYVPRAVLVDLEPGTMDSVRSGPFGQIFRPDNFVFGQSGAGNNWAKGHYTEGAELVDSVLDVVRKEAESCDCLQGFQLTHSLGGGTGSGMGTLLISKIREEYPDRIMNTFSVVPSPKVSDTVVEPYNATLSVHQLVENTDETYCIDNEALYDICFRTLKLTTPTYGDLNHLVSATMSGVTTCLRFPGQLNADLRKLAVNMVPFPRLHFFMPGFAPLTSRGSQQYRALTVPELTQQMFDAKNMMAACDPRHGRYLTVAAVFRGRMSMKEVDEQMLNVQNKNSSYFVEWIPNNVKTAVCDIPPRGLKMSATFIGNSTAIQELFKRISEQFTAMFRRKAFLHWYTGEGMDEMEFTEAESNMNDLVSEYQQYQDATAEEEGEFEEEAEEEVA

[14] = molecular target: Cytoskeleton-associated protein 4 (Homo sapiens) (UniProt Q07065)
Vimentin (Homo sapiens) = Vimentin (Homo sapiens) (UniProt P08670)
[15] = molecular target: 60S ribosomal protein L4 (Homo sapiens) (UniProt P36578)
[16] = molecular target: Ribonuclease inhibitor (Homo sapiens) (UniProt P13489)
Caprin-1 (Homo sapiens) = Caprin-1 (Homo sapiens) (UniProt Q14444)
[17] = molecular target: Actin-related protein 3 (Homo sapiens) (UniProt P61158)
[18] = molecular target: Tubulin beta-6 chain (Homo sapiens) (UniProt Q9BUF5)
[19] = molecular target: Tubulin beta-2A chain (Homo sapiens) (UniProt Q13885)
Sequence of Tubulin beta-2A chain (Homo sapiens) (Q13885 whole entry): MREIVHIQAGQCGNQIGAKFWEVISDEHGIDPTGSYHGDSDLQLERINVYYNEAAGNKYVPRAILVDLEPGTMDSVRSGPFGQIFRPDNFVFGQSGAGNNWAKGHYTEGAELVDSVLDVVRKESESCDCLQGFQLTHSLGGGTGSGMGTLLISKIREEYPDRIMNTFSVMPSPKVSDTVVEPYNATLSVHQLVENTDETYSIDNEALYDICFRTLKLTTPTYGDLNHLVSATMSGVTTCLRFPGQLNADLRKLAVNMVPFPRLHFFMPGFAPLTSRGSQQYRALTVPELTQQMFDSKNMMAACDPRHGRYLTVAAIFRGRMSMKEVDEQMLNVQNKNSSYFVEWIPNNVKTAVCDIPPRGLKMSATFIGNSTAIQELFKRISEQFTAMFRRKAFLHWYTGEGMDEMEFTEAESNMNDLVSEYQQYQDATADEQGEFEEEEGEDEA

[20] = molecular target: 40S ribosomal protein S8 (Homo sapiens) (UniProt P62241)
[21] = molecular target: Nucleophosmin (Homo sapiens) (UniProt P06748)
[22] = molecular target: 60S ribosomal protein L13 (Homo sapiens) (UniProt P26373)
[23] = molecular target: Endoplasmic reticulum chaperone BiP (Homo sapiens) (UniProt P11021)
[24] = molecular target: Neuroblast differentiation-associated protein AHNAK (Homo sapiens) (UniProt Q09666)
[25] = molecular target: Heat shock protein HSP 90-beta (Homo sapiens) (UniProt P08238)
[26] = molecular target: Protein disulfide-isomerase (Homo sapiens) (UniProt P07237)
Sequence of Protein disulfide-isomerase (Homo sapiens) (P07237 18-508 limits assumed): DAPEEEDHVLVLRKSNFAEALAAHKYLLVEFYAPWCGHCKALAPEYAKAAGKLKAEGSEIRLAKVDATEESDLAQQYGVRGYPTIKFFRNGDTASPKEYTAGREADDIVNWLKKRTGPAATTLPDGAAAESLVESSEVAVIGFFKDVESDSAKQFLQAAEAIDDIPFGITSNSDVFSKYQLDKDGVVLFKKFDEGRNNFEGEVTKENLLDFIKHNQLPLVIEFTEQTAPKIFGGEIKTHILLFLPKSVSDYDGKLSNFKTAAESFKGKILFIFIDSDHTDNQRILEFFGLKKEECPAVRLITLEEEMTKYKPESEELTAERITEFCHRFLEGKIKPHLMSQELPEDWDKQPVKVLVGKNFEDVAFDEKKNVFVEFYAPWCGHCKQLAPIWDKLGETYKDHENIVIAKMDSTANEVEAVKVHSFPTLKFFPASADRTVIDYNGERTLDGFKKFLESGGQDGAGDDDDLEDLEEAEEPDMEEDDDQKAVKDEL

[27] = molecular target: AP-2 complex subunit alpha-1 (Homo sapiens) (UniProt O95782)
[28] = molecular target: 40S ribosomal protein S14 (Homo sapiens) (UniProt P62263)
[29] = molecular target: Tubulin alpha-4A chain (Homo sapiens) (UniProt P68366)
[30] = molecular target: Alpha-actinin-4 (Homo sapiens) (UniProt O43707)
Sequence of Alpha-actinin-4 (Homo sapiens) (O43707 whole entry): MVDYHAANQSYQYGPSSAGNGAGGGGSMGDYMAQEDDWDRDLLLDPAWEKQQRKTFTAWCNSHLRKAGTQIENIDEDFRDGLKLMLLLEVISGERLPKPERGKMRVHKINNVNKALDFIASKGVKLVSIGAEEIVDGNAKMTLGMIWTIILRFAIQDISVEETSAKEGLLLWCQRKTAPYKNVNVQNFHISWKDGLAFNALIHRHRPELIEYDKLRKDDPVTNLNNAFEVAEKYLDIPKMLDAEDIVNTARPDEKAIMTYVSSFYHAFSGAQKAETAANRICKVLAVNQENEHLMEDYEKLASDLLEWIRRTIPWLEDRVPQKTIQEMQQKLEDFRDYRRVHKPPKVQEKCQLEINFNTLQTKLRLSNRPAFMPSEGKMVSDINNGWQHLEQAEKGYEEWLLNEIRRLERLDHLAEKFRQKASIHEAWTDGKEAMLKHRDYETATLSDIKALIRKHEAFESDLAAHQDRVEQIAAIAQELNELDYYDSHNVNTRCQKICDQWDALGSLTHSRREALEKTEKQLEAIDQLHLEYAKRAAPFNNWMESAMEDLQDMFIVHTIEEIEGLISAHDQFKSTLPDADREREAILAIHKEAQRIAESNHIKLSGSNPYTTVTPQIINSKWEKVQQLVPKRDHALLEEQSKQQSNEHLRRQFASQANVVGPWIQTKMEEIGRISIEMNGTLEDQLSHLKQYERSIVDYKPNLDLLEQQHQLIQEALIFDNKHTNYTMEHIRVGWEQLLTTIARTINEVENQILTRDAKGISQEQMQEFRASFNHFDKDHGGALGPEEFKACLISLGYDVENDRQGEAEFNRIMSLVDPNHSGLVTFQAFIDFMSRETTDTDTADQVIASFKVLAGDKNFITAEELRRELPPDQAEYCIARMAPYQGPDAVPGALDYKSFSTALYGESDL

Myosin-9 (Homo sapiens) = Myosin-9 (Homo sapiens) (UniProt P35579)
[31] = molecular target: S-adenosylhomocysteine hydrolase-like protein 1 (Homo sapiens) (UniProt O43865)
Sequence of S-adenosylhomocysteine hydrolase-like protein 1 (Homo sapiens) (O43865 2-530 limits assumed): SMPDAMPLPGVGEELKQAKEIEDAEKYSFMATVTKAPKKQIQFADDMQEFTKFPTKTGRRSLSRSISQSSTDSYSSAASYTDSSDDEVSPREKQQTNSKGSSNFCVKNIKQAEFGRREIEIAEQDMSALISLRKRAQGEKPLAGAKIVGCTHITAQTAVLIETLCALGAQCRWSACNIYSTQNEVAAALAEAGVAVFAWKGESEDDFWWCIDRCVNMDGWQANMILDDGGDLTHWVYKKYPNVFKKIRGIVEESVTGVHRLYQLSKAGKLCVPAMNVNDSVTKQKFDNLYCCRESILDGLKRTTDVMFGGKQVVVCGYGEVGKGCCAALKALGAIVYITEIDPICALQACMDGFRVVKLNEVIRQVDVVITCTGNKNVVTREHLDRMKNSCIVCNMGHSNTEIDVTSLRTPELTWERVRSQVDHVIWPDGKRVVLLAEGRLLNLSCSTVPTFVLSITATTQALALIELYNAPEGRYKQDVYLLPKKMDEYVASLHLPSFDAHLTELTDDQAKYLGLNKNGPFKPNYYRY

[32] = molecular target: 60S ribosomal protein L3 (Homo sapiens) (UniProt P39023)
[33] = molecular target: Heterogeneous nuclear ribonucleoprotein K (Homo sapiens) (UniProt P61978)
[34] = molecular target: Probable ATP-dependent RNA helicase DDX6 (Homo sapiens) (UniProt P26196)
Desmin (Homo sapiens) = Desmin (Homo sapiens) (UniProt P17661)

Sequence of Elongation factor 1-alpha 1 (Homo sapiens) (P68104 2-462 limits assumed): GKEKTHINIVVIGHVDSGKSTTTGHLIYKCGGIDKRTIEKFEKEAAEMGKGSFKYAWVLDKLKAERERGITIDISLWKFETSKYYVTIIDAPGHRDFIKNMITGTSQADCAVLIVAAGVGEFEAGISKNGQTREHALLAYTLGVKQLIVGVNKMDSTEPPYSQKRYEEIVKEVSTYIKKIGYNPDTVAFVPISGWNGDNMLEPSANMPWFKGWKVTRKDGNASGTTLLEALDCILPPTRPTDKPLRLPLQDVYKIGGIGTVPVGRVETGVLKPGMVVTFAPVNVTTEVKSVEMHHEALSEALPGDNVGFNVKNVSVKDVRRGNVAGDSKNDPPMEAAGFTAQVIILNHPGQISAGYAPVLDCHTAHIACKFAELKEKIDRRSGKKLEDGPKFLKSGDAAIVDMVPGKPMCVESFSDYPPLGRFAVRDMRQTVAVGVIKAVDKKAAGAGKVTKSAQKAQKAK

i3XFLAG-NLS-CTDaa154-424
PSMs [1]: 3 PSMs
PSMs [2]: 9 PSMs
PSMs [3]: 3 PSMs
PSMs [4]: 22 PSMs
PSMs [5]: 17 PSMs
PSMs (Plectin (Homo sapiens)): 5 PSMs
PSMs [6]: 3 PSMs
PSMs [7]: 5 PSMs
PSMs [8]: 3 PSMs
PSMs [9]: 3 PSMs
PSMs [10]: 2 PSMs
PSMs [11]: 3 PSMs
PSMs (Filamin-C (Homo sapiens)): 2 PSMs
PSMs [12]: 41 PSMs
PSMs [13]: 42 PSMs
PSMs [14]: 30 PSMs
PSMs (Vimentin (Homo sapiens)): 42 PSMs
PSMs [15]: 10 PSMs
PSMs [16]: 3 PSMs
PSMs (Caprin-1 (Homo sapiens)): 5 PSMs
PSMs [17]: 5 PSMs
PSMs [18]: 20 PSMs
PSMs [19]: 35 PSMs
PSMs [20]: 2 PSMs
PSMs [21]: 2 PSMs
PSMs [22]: 2 PSMs
PSMs [23]: 22 PSMs
PSMs [24]: 8 PSMs
PSMs [25]: 2 PSMs
PSMs [26]: 3 PSMs
PSMs [27]: 10 PSMs
PSMs [28]: 2 PSMs
PSMs [29]: 14 PSMs
PSMs [30]: 2 PSMs
PSMs (Myosin-9 (Homo sapiens)): 122 PSMs
PSMs [31]: 7 PSMs
PSMs [32]: 3 PSMs
PSMs [33]: 2 PSMs
PSMs [34]: 2 PSMs
PSMs (Desmin (Homo sapiens)): 9 PSMs
